# From PMC7603204
# B1: E. coli AlaRS (Escherichia coli K-12; C666A/R561C) (protein)
# chain: SKSTAEIRQAFLDFFHSKGHQVVASSSLVPHNDPTLLFTNAGMNQFKDVFLGLDKRNYSRATTSQRCVRAGGKHNDLENVGYTARHHTFFEMLGNFSFGDYFKHDAIQFAWELLTSEKWFALPKERLWVTVYESDDEAYEIWEKEVGIPRERIIRIGDNKGAPYASDNFWQMGDTGPCGPCTEIFYDHGDHIWGGPPGSPEEDGDRYIEIWNIVFMQFNRQADGTMEPLPKPSVDTGMGLERIAAVLQHVNSNYDIDLFRTLIQAVAKVTGATDLSNKSLRVIADHIRSCAFLIADGVMPSNENRGYVLRRIIRRAVRHGNMLGAKETFFYKLVGPLIDVMGSAGEDLKRQQAQVEQVLKTEEEQFARTLERGLALLDEELAKLSGDTLDGETAFRLYDTYGFPVDLTADVCRERNIKVDEAGFEAAMEEQRRRAREASGFGADYNAMIRVDSASEFKGYDHLELNGKVTALFVDGKAVDAINAGQEAVVVLDQTPFYAESGGQVGDKGELKGANFSFAVEDTQKYGQAIGHIGKLAAGSLKVGDAVQADVDEARRARICLNHSATHLMHAALRQVLGTHVSQKGSLVNDKVLRFDFSHNEAMKPEEIRAVEDLVNTQIRRNLPIETNIMDLEAAKAKGAMALFGEKYDERVRVLSMGDFSTELAGGTHASRTGDIGLFRIISESGTAAGVRRIEAVTGEGAIATVHADSDRLSEVAHLLKGDSNNLADKVRSVLERTRQLEKELQQLKEQAAAQESANLSSKAIDVNGVKLLVSELSGVEPKMLRTMVDDLKNQLGSTIIVLATVVEGKVSLIAGVSKDVTDRVKAGELIGMVAQQVGGKGGGRPDMAQAGGTDAAALPAALASVKGWVSAKLQ
# B2: E. coli AlaRS (Escherichia coli K-12; R561S) (protein)
# chain: SKSTAEIRQAFLDFFHSKGHQVVASSSLVPHNDPTLLFTNAGMNQFKDVFLGLDKRNYSRATTSQRCVRAGGKHNDLENVGYTARHHTFFEMLGNFSFGDYFKHDAIQFAWELLTSEKWFALPKERLWVTVYESDDEAYEIWEKEVGIPRERIIRIGDNKGAPYASDNFWQMGDTGPCGPCTEIFYDHGDHIWGGPPGSPEEDGDRYIEIWNIVFMQFNRQADGTMEPLPKPSVDTGMGLERIAAVLQHVNSNYDIDLFRTLIQAVAKVTGATDLSNKSLRVIADHIRSCAFLIADGVMPSNENRGYVLRRIIRRAVRHGNMLGAKETFFYKLVGPLIDVMGSAGEDLKRQQAQVEQVLKTEEEQFARTLERGLALLDEELAKLSGDTLDGETAFRLYDTYGFPVDLTADVCRERNIKVDEAGFEAAMEEQRRRAREASGFGADYNAMIRVDSASEFKGYDHLELNGKVTALFVDGKAVDAINAGQEAVVVLDQTPFYAESGGQVGDKGELKGANFSFAVEDTQKYGQAIGHIGKLAAGSLKVGDAVQADVDEARRARISLNHSATHLMHAALRQVLGTHVSQKGSLVNDKVLRFDFSHNEAMKPEEIRAVEDLVNTQIRRNLPIETNIMDLEAAKAKGAMALFGEKYDERVRVLSMGDFSTELCGGTHASRTGDIGLFRIISESGTAAGVRRIEAVTGEGAIATVHADSDRLSEVAHLLKGDSNNLADKVRSVLERTRQLEKELQQLKEQAAAQESANLSSKAIDVNGVKLLVSELSGVEPKMLRTMVDDLKNQLGSTIIVLATVVEGKVSLIAGVSKDVTDRVKAGELIGMVAQQVGGKGGGRPDMAQAGGTDAAALPAALASVKGWVSAKLQ
# B3: E. coli AlaRS (Escherichia coli K-12) (protein)
# chain: SKSTAEIRQAFLDFFHSKGHQVVASSSLVPHNDPTLLFTNAGMNQFKDVFLGLDKRNYSRATTSQRCVRAGGKHNDLENVGYTARHHTFFEMLGNFSFGDYFKHDAIQFAWELLTSEKWFALPKERLWVTVYESDDEAYEIWEKEVGIPRERIIRIGDNKGAPYASDNFWQMGDTGPCGPCTEIFYDHGDHIWGGPPGSPEEDGDRYIEIWNIVFMQFNRQADGTMEPLPKPSVDTGMGLERIAAVLQHVNSNYDIDLFRTLIQAVAKVTGATDLSNKSLRVIADHIRSCAFLIADGVMPSNENRGYVLRRIIRRAVRHGNMLGAKETFFYKLVGPLIDVMGSAGEDLKRQQAQVEQVLKTEEEQFARTLERGLALLDEELAKLSGDTLDGETAFRLYDTYGFPVDLTADVCRERNIKVDEAGFEAAMEEQRRRAREASGFGADYNAMIRVDSASEFKGYDHLELNGKVTALFVDGKAVDAINAGQEAVVVLDQTPFYAESGGQVGDKGELKGANFSFAVEDTQKYGQAIGHIGKLAAGSLKVGDAVQADVDEARRARIRLNHSATHLMHAALRQVLGTHVSQKGSLVNDKVLRFDFSHNEAMKPEEIRAVEDLVNTQIRRNLPIETNIMDLEAAKAKGAMALFGEKYDERVRVLSMGDFSTELCGGTHASRTGDIGLFRIISESGTAAGVRRIEAVTGEGAIATVHADSDRLSEVAHLLKGDSNNLADKVRSVLERTRQLEKELQQLKEQAAAQESANLSSKAIDVNGVKLLVSELSGVEPKMLRTMVDDLKNQLGSTIIVLATVVEGKVSLIAGVSKDVTDRVKAGELIGMVAQQVGGKGGGRPDMAQAGGTDAAALPAALASVKGWVSAKLQ
# B4: E. coli AlaRS (Escherichia coli K-12; C666A/R561S) (protein)
# chain: SKSTAEIRQAFLDFFHSKGHQVVASSSLVPHNDPTLLFTNAGMNQFKDVFLGLDKRNYSRATTSQRCVRAGGKHNDLENVGYTARHHTFFEMLGNFSFGDYFKHDAIQFAWELLTSEKWFALPKERLWVTVYESDDEAYEIWEKEVGIPRERIIRIGDNKGAPYASDNFWQMGDTGPCGPCTEIFYDHGDHIWGGPPGSPEEDGDRYIEIWNIVFMQFNRQADGTMEPLPKPSVDTGMGLERIAAVLQHVNSNYDIDLFRTLIQAVAKVTGATDLSNKSLRVIADHIRSCAFLIADGVMPSNENRGYVLRRIIRRAVRHGNMLGAKETFFYKLVGPLIDVMGSAGEDLKRQQAQVEQVLKTEEEQFARTLERGLALLDEELAKLSGDTLDGETAFRLYDTYGFPVDLTADVCRERNIKVDEAGFEAAMEEQRRRAREASGFGADYNAMIRVDSASEFKGYDHLELNGKVTALFVDGKAVDAINAGQEAVVVLDQTPFYAESGGQVGDKGELKGANFSFAVEDTQKYGQAIGHIGKLAAGSLKVGDAVQADVDEARRARISLNHSATHLMHAALRQVLGTHVSQKGSLVNDKVLRFDFSHNEAMKPEEIRAVEDLVNTQIRRNLPIETNIMDLEAAKAKGAMALFGEKYDERVRVLSMGDFSTELAGGTHASRTGDIGLFRIISESGTAAGVRRIEAVTGEGAIATVHADSDRLSEVAHLLKGDSNNLADKVRSVLERTRQLEKELQQLKEQAAAQESANLSSKAIDVNGVKLLVSELSGVEPKMLRTMVDDLKNQLGSTIIVLATVVEGKVSLIAGVSKDVTDRVKAGELIGMVAQQVGGKGGGRPDMAQAGGTDAAALPAALASVKGWVSAKLQ
# B5: E. coli AlaRS (Escherichia coli K-12; D551Y) (protein)
# chain: SKSTAEIRQAFLDFFHSKGHQVVASSSLVPHNDPTLLFTNAGMNQFKDVFLGLDKRNYSRATTSQRCVRAGGKHNDLENVGYTARHHTFFEMLGNFSFGDYFKHDAIQFAWELLTSEKWFALPKERLWVTVYESDDEAYEIWEKEVGIPRERIIRIGDNKGAPYASDNFWQMGDTGPCGPCTEIFYDHGDHIWGGPPGSPEEDGDRYIEIWNIVFMQFNRQADGTMEPLPKPSVDTGMGLERIAAVLQHVNSNYDIDLFRTLIQAVAKVTGATDLSNKSLRVIADHIRSCAFLIADGVMPSNENRGYVLRRIIRRAVRHGNMLGAKETFFYKLVGPLIDVMGSAGEDLKRQQAQVEQVLKTEEEQFARTLERGLALLDEELAKLSGDTLDGETAFRLYDTYGFPVDLTADVCRERNIKVDEAGFEAAMEEQRRRAREASGFGADYNAMIRVDSASEFKGYDHLELNGKVTALFVDGKAVDAINAGQEAVVVLDQTPFYAESGGQVGDKGELKGANFSFAVEDTQKYGQAIGHIGKLAAGSLKVGDAVQAYVDEARRARIRLNHSATHLMHAALRQVLGTHVSQKGSLVNDKVLRFDFSHNEAMKPEEIRAVEDLVNTQIRRNLPIETNIMDLEAAKAKGAMALFGEKYDERVRVLSMGDFSTELCGGTHASRTGDIGLFRIISESGTAAGVRRIEAVTGEGAIATVHADSDRLSEVAHLLKGDSNNLADKVRSVLERTRQLEKELQQLKEQAAAQESANLSSKAIDVNGVKLLVSELSGVEPKMLRTMVDDLKNQLGSTIIVLATVVEGKVSLIAGVSKDVTDRVKAGELIGMVAQQVGGKGGGRPDMAQAGGTDAAALPAALASVKGWVSAKLQ
# B6: E. coli AlaRS (Escherichia coli K-12; C666A) (protein)
# chain: SKSTAEIRQAFLDFFHSKGHQVVASSSLVPHNDPTLLFTNAGMNQFKDVFLGLDKRNYSRATTSQRCVRAGGKHNDLENVGYTARHHTFFEMLGNFSFGDYFKHDAIQFAWELLTSEKWFALPKERLWVTVYESDDEAYEIWEKEVGIPRERIIRIGDNKGAPYASDNFWQMGDTGPCGPCTEIFYDHGDHIWGGPPGSPEEDGDRYIEIWNIVFMQFNRQADGTMEPLPKPSVDTGMGLERIAAVLQHVNSNYDIDLFRTLIQAVAKVTGATDLSNKSLRVIADHIRSCAFLIADGVMPSNENRGYVLRRIIRRAVRHGNMLGAKETFFYKLVGPLIDVMGSAGEDLKRQQAQVEQVLKTEEEQFARTLERGLALLDEELAKLSGDTLDGETAFRLYDTYGFPVDLTADVCRERNIKVDEAGFEAAMEEQRRRAREASGFGADYNAMIRVDSASEFKGYDHLELNGKVTALFVDGKAVDAINAGQEAVVVLDQTPFYAESGGQVGDKGELKGANFSFAVEDTQKYGQAIGHIGKLAAGSLKVGDAVQADVDEARRARIRLNHSATHLMHAALRQVLGTHVSQKGSLVNDKVLRFDFSHNEAMKPEEIRAVEDLVNTQIRRNLPIETNIMDLEAAKAKGAMALFGEKYDERVRVLSMGDFSTELAGGTHASRTGDIGLFRIISESGTAAGVRRIEAVTGEGAIATVHADSDRLSEVAHLLKGDSNNLADKVRSVLERTRQLEKELQQLKEQAAAQESANLSSKAIDVNGVKLLVSELSGVEPKMLRTMVDDLKNQLGSTIIVLATVVEGKVSLIAGVSKDVTDRVKAGELIGMVAQQVGGKGGGRPDMAQAGGTDAAALPAALASVKGWVSAKLQ
# Substrate: C[C@H](N)C(=O)O
# Experiment: purified protein
# Conditions: 2 mM ATP, 2 mM PPi, 10 mM MgCl2, 30 mM KCl, 2 mM NaF, pH 7.2, 37 °C, amino acid activation
Protein,Km,kcat,kcat/Km
B1,190 ± 30 µM,13.7 s⁻¹,71500 M⁻¹ s⁻¹
B2,180 ± 15 µM,20.3 s⁻¹,112000 M⁻¹ s⁻¹
B3,320 ± 150 µM,20.8 s⁻¹,65200 M⁻¹ s⁻¹
B4,177 ± 37 µM,13.2 s⁻¹,74300 M⁻¹ s⁻¹
B5,260 ± 76 µM,11.9 s⁻¹,46000 M⁻¹ s⁻¹
B6,263 ± 115 µM,16.8 s⁻¹,63800 M⁻¹ s⁻¹
